Assay results from publication PMC3155532.

Legend:
Details in all cases: remark: other sources report otherwise
[1] = biological target: 3xflag-LRRK2 (leucine rich repeat kinase 2), wild type (UniProt Q5S007); experiment: SEC; purified 3xflag-LRRK2 (flag-M2 beads, eluted with 3xflag peptide), Superose 6 10/300 GL, 4°C, SEC running buffer with 10 µM GDP or GTPγS; fractions read by flag-M2 dot blot; higher molecular weight peaks also seen
[2] = biological target: 3xflag-LRRK2 (leucine rich repeat kinase 2), wild type (UniProt Q5S007); experiment: SEC; cleared HEK293T cell lysates expressing 3xflag-LRRK2, Superose 6 10/300 GL, 4°C, SEC running buffer (25 mM Tris pH 7.4, 150 mM NaCl, 5 mM MgCl2, 0.02% Triton, 1 mM DTT) with 10 µM GDP or GTPγS; fractions read by flag-M2 dot blot
[3] = biological target: 3xflag-LRRK2 (leucine rich repeat kinase 2), wild type (UniProt Q5S007); experiment: native gel or EMSA; native PAGE of 3xflag-LRRK2 purified from lysates treated with GDP, GTPγS or GMPPCP (10, 100 and 500 µM, 30 minutes at 30°C); silver stain and flag-M2 immunoblot

Measured: stoichiometry N

3xflag-LRRK2 (leucine rich repeat kinase 2), wild type, Q5S007 1-2527
2: all assays above
